Source: the RNAGym collection of RNA variant scans (doi:10.7554/elife.80360)

B1: Hairpin Ribozyme (parent)
chain: GUCCUCUUUCACGUGCGCGUGAAAGAGAGAAGUGAACCAGAGAAACACACGUUGUGGUAUAUUACCUGGUA

Variants of: B1
Experiment: self-cleavage, relative activity (ratio to wild type); higher = more cleavage; co-transcriptional
With GUCCUCUUUCACGUGCGUGUGAAAGAGAGAAGUGCACCAGAGAAACACACGUUGUGGUAUAUUACCUGGUA the self-cleavage was 0.968.
With GUCCUCUUUCACGUGCGUGUGAAAGAGAGAAGUGGACCAGAGAAACACACGUUGUGGUAUAUUACCUGGUA the self-cleavage was 0.986.
In the case of GUCCUCUUUCACGUGCGUGUGAAAGAGAGAAGUGAGCCAGAGAAACACACGUUGUGGUAUAUUACCUGGUA, the self-cleavage is reported as 1.15.
GUCCUCUUUCACGUGCGUGUGAAAGAGAGAAGUGAACCGGAGAAACACACGUUGUGGUAUAUUACCUGGUA showed a self-cleavage of 0.375.
Work on GUCCUCUUUCACGUGCGUGUGAAAGAGAGAAGUGAACCAGCGAAACACACGUUGUGGUAUAUUACCUGGUA yielded a self-cleavage of 1.09.
For GUCCUCUUUCACGUGCGUGUGAAAGAGAGAAGUGAACCAGAGGAACACACGUUGUGGUAUAUUACCUGGUA, the self-cleavage was 0.103.
With GUCCUCUUUCACGUGCGUGUGAAAGAGAGAAGUGAACCAGAGAGACACACGUUGUGGUAUAUUACCUGGUA the self-cleavage was 0.113.
Variant GUCCUCUUUCACGUGCGUGUGAAAGAGAGAAGUGAACCAGAGAUACACACGUUGUGGUAUAUUACCUGGUA has a self-cleavage of 0.15.
GUCCUCUUUCACGUGCGUGUGAAAGAGAGAAGUGAACCAGAGAACCACACGUUGUGGUAUAUUACCUGGUA gave a self-cleavage of 0.218.
In the case of GUCCUCUUUCACGUGCGUGUGAAAGAGAGAAGUGAACCAGAGAAACCCACGUUGUGGUAUAUUACCUGGUA, the self-cleavage is reported as 0.474.
In the case of GUCCUCUUUCACGUGCGUGUGAAAGAGAGAAGUGAACCAGAGAAACACUCGUUGUGGUAUAUUACCUGGUA, the self-cleavage is reported as 0.141.
With GUCCUCUUUCACGUGCGUGUGAAAGAGAGAAGUGAACCAGAGAAACACACGUUGUGGUGUAUUACCUGGUA the self-cleavage was 0.148.
For GUCCUCUUUCACGUGCGUGUGAAAGAGAGAAGUGAACCAGAGAAACACACGUUGUGGUAUGUUACCUGGUA, the self-cleavage was 0.276.
Work on GUCCUCUUUCACGUGCGUGUGAAAGAGAGAAGUGAACCAGAGAAACACACGUUGUGGUAUAUUCCCUGGUA yielded a self-cleavage of 0.216.
GUCCUCUUUCACGUGCGUGUGAAAGAGAGAAGUGAACCAGAGAAACACACGUUGUGGUAUAUUGCCUGGUA showed a self-cleavage of 0.71.
GUCCUCUUUCACGUGCGUGUGAAAGAGAGAAGUGAACCAGAGAAACACACGUUGUGGUAUAUUUCCUGGUA gave a self-cleavage of 0.109.
Variant GUCCUCUUUCACGUGCGUGUGAAAGAGAGAAGUGAACAAGAGAAACACACGUUGUGGUAUAUUACCUGGUA has a self-cleavage of 0.111.
Work on GUCCUCUUUCACGUGCGUGUGAAAGAGAGAAGUGAACCAGAGAAAGACACGUUGUGGUAUAUUACCUGGUA yielded a self-cleavage of 0.145.
GUCCUCUUUCACGUGCGUGUGAAAGAGAGAAGUGAACCAGAGAAACAGACGUUGUGGUAUAUUACCUGGUA showed a self-cleavage of 0.0965.
Work on GUCCUCUUUCACGUGCGUGUGAAAGAGAGAAGUGAACCAGAGAAACACAAGUUGUGGUAUAUUACCUGGUA yielded a self-cleavage of 0.314.
GUCCUCUUUCACGUGCGUGUGAAAGAGAGAAGUGAACCAGAGAAACACACGUUGUGGUAUAUUAACUGGUA gave a self-cleavage of 0.88.
GUCCUCUUUCACGUGCGUGUGAAAGAGAGAAGUGAACCAGAGAAACACACGUUGUGGUAUAUUAGCUGGUA gave a self-cleavage of 0.27.
Work on GUCCUCUUUCACGUGCGUGUGAAAGAGAGAAGUGAACCAGAGAAACACACGUUGUGGUAUAUUACAUGGUA yielded a self-cleavage of 0.25.
With GUCCUCUUUCACGUGCGUCUGAAAGAGAGAAGUGAACCAGAGAAACACACGUUGUGGUAUAUUACCUGGUA the self-cleavage was 0.89.
Work on GUCCUCUUUCACGUGCGUGUGAAAUAGAGAAGUGAACCAGAGAAACACACGUUGUGGUAUAUUACCUGGUA yielded a self-cleavage of 0.69.
Variant GUCCUCUUUCACGUGCGUGUGAAAGAUAGAAGUGAACCAGAGAAACACACGUUGUGGUAUAUUACCUGGUA has a self-cleavage of 0.303.
GUCCUCUUUCACGUGCGUGUGAAAGAGACAAGUGAACCAGAGAAACACACGUUGUGGUAUAUUACCUGGUA showed a self-cleavage of 0.116.
GUCCUCUUUCACGUGCGUGUGAAAGAGAUAAGUGAACCAGAGAAACACACGUUGUGGUAUAUUACCUGGUA gave a self-cleavage of 0.172.
With GUCCUCUUUCACGUGCGUGUGAAAGAGAGAACUGAACCAGAGAAACACACGUUGUGGUAUAUUACCUGGUA the self-cleavage was 0.142.
In the case of GUCCUCUUUCACGUGCGUGUGAAAGAGAGAAGUUAACCAGAGAAACACACGUUGUGGUAUAUUACCUGGUA, the self-cleavage is reported as 1.46.
GUCCUCUUUCACGUGCGUGUGAAAGAGAGAAGUGAACCACAGAAACACACGUUGUGGUAUAUUACCUGGUA gave a self-cleavage of 0.0598.
GUCCUCUUUCACGUGCGUGUGAAAGAGAGAAGUGAACCAGAGAAACACACAUUGUGGUAUAUUACCUGGUA gave a self-cleavage of 1.26.
Work on GUCCUCUUUCACGUGCGUGUGAAAGAGAGAAGUGAACCAGAGAAACACACCUUGUGGUAUAUUACCUGGUA yielded a self-cleavage of 0.881.
GUCCUCUUUCACGUGCGUGUGAAAGAGAGAAGUGAACCAGAGAAACACACGUUGUGAUAUAUUACCUGGUA gave a self-cleavage of 0.188.
GUCCUCUUUCACGUGCGUGUGAAAGAGAGAAGUGAACCAGAGAAACACACGUUGUGUUAUAUUACCUGGUA gave a self-cleavage of 0.234.
Work on GUCCUCUUUCACGUGCGUGUGAAAGAGAGAAGUGAACCAGAGAAACACACGUUGUGGUAUAUUACCUAGUA yielded a self-cleavage of 0.224.
For GUCCUCUUUCACGUGCGUGUGAAAGAGAGAAGUGAACCAGAGAAACACACGUUGUGGUAUAUUACCUCGUA, the self-cleavage was 0.221.
Work on GUCCUCUUUCACGUGCGUGUGAAAGAGAGAAGUGAACCAGAGAAACACACGUUGUGGUAUAUUACCUUGUA yielded a self-cleavage of 0.307.
